Measured values from PMC3430690 (PLoS ONE, 2012).
One block for each molecule: values may come before it.

Columns and labels:
[1] = target: 3xFlag-LRRK2 T1348N GTP deficient binding mutant, full-length (human) (UniProt Q5S007); experiment: immunogold labelling + negative-stain transmission electron microscopy; purified 3xFlag proteins diluted to 5 ng/ul in 20 mM Tris-HCl pH 7.5, 150 mM NaCl, 0.02% Tween 20 or Triton X-100; uranyl acetate stain; anti-Flag M2 primary and 5 nm gold secondary antibody; distances between gold particles and particle diameters measured
[2] = target: T1, 3xFlag-LRRK2 (Homo sapiens, UniProt Q5S007); experiment: pulldown from cell lysate on ATP-agarose, competed by free ATP; assay type: binding; details: ATP-depleted lysate, pH 7.4, 5 mM MgCl2, 4°C; competed by 1 mM ATP, not GTP; kinase domain site
T1 construct: homodimer
T1 sequence (Q5S007 whole entry, the tested form may be a part): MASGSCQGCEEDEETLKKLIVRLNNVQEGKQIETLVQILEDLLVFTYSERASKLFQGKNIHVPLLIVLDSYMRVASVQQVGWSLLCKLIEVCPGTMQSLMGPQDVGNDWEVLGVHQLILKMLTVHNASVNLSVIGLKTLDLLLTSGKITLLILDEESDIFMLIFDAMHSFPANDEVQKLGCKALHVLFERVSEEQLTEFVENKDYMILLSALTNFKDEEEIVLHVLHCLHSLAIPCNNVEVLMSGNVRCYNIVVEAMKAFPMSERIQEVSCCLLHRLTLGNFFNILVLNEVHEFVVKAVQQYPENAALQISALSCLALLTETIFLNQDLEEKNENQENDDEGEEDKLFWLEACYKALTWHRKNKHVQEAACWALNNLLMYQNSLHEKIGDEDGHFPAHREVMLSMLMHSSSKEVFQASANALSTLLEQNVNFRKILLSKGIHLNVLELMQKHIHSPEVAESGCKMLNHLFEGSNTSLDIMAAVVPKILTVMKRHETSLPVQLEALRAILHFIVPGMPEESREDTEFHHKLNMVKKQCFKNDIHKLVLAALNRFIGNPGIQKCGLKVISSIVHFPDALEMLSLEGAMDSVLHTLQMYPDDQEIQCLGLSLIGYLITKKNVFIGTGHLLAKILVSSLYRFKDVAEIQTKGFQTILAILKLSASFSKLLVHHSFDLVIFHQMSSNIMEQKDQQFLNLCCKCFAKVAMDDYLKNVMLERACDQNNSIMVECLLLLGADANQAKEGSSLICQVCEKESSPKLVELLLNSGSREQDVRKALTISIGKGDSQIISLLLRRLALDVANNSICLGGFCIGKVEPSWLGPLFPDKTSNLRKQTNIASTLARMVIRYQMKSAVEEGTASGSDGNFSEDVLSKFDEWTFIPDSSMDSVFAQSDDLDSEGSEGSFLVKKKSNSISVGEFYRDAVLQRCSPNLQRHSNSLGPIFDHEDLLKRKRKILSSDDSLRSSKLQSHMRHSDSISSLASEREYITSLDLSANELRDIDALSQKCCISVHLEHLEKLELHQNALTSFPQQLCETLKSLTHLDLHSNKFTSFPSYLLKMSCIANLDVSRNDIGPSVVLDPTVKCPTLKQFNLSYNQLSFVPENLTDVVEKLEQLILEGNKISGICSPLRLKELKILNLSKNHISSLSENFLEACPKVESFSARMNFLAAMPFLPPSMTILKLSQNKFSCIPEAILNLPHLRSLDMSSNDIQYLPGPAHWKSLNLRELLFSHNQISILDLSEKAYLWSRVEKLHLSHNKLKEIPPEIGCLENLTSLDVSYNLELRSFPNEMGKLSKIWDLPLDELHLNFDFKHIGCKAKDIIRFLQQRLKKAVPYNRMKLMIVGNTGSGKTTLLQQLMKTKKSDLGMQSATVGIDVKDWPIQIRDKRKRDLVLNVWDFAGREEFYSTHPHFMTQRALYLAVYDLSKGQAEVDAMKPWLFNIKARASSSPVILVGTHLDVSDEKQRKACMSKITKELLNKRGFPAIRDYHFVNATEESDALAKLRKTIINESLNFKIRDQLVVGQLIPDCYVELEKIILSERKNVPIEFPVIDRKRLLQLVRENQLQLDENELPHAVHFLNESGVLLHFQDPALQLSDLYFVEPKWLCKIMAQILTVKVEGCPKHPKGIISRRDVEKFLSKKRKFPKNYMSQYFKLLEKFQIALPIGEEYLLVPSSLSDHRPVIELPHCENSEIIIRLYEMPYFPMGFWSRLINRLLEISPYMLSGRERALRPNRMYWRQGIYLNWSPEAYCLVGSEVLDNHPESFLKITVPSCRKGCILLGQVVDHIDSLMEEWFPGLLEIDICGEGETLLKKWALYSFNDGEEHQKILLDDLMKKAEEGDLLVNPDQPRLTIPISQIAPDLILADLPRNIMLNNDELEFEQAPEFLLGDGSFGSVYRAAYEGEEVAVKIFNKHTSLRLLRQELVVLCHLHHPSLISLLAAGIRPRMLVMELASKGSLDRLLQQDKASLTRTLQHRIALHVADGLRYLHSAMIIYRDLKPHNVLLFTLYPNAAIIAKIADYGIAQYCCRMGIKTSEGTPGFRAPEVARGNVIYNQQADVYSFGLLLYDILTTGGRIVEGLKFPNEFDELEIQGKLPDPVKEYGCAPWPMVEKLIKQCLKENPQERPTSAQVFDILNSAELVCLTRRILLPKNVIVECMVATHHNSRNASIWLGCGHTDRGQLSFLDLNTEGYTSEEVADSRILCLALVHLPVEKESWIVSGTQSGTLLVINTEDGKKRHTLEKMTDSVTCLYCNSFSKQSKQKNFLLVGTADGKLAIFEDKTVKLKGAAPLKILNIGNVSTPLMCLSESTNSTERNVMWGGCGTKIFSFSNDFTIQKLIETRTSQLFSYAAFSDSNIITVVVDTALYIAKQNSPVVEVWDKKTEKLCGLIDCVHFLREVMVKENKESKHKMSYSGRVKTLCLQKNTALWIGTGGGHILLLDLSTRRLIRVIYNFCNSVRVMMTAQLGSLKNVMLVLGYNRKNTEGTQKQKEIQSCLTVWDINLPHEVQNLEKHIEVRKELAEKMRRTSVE

[3] = target: T2, 3xFlag-LRRK1 (Homo sapiens, UniProt Q38SD2); experiment: as above; assay type: binding; details: ATP-depleted lysate, pH 7.4, 5 mM MgCl2, 4°C; competed by 1 mM ATP, not GTP; kinase domain site
T2 construct: homodimer
T2 sequence (Q38SD2 28-2015): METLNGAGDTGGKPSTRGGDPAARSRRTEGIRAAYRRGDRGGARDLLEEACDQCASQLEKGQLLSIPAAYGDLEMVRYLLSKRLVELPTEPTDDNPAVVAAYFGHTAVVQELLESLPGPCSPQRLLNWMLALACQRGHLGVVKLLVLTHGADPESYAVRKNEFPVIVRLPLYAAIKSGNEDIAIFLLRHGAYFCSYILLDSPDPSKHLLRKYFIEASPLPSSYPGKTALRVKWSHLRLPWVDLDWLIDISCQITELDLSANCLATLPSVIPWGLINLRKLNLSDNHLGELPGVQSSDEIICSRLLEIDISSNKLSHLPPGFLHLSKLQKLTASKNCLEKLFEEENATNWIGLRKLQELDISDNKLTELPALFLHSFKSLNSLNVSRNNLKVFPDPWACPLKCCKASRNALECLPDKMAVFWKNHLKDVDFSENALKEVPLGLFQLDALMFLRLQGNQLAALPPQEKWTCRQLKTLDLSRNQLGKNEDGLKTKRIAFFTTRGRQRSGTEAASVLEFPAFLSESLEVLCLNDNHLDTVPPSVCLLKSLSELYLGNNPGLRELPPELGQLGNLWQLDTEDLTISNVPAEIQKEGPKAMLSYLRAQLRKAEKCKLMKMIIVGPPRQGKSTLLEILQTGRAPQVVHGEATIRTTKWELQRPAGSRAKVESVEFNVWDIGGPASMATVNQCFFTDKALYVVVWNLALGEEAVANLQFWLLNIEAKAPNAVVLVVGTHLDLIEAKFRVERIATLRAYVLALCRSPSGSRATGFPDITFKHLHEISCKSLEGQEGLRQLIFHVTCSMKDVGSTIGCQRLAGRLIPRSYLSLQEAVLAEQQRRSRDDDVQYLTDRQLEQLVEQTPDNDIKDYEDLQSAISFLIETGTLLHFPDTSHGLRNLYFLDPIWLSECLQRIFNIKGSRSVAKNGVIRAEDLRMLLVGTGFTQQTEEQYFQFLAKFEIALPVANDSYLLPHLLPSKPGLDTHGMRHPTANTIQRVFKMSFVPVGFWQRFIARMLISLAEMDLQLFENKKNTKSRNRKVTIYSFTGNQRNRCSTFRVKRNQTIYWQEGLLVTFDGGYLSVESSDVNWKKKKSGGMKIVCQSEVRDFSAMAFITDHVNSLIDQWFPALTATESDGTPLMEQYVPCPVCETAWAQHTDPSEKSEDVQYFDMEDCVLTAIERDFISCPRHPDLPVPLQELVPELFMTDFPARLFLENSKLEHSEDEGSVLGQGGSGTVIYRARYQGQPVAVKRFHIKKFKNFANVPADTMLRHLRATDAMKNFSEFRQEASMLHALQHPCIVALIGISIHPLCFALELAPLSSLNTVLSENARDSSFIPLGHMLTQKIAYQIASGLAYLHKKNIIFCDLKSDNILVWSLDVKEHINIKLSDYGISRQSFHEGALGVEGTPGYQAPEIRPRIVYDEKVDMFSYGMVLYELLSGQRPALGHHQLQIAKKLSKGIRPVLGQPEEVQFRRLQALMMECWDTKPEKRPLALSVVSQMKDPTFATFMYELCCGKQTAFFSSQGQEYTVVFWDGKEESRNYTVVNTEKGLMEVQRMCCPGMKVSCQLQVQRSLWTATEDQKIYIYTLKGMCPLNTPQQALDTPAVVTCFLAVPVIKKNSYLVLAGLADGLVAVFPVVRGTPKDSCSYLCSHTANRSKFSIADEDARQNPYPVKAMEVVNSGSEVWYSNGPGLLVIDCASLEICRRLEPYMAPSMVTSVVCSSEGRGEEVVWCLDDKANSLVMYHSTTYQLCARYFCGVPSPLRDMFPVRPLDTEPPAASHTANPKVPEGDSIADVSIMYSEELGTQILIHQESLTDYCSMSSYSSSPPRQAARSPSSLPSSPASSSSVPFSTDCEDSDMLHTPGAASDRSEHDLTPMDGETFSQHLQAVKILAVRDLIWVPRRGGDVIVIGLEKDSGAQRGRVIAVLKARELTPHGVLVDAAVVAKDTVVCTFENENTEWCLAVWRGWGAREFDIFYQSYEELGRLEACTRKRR

[4] = target: 3xFlag-LRRK2 K1906M kinase dead mutant, full-length (human) (UniProt Q5S007); experiment: immunogold labelling + negative-stain transmission electron microscopy; purified 3xFlag proteins diluted to 5 ng/ul in 20 mM Tris-HCl pH 7.5, 150 mM NaCl, 0.02% Tween 20 or Triton X-100; uranyl acetate stain; anti-Flag M2 primary and 5 nm gold secondary antibody; distances between gold particles and particle diameters measured
[5] = target: 3xFlag-LRRK1 wild-type (leucine-rich repeat kinase 1), full-length (human) (UniProt Q38SD2); experiment: as above
[6] = target: 3xFlag-LRRK2 G2019S pathogenic mutant, full-length (human) (UniProt Q5S007); experiment: as above; details: remark: other sources report otherwise
[7] = target: 3xFlag-LRRK1 K650A GTP deficient binding mutant, full-length (human) (UniProt Q38SD2); experiment: as above
[8] = target: the molecule itself; experiment: as above

Molecule: 3xFlag-LRRK2 T1348N GTP deficient binding mutant, full-length, Q5S007 1-2527
stoichiometry N [1]: 2

Molecule: Nc1ncnc2c1ncn2[C@@H]1O[C@H](COP(=O)(O)OP(=O)(O)OP(=O)(O)O)[C@@H](O)[C@H]1O [ATP]
pulldown from cell lysate on ATP-agarose, competed by free ATP [2]: we confirm binding of both proteins to ATP using different ATP agarose beads | pulldown from cell lysate on ATP-agarose, competed by free ATP [3]: we confirm binding of both proteins to ATP using different ATP agarose beads

Molecule: 3xFlag-LRRK2 G2019S pathogenic mutant, full-length, Q5S007 1-2527
stoichiometry N [6]: 2

B1: 3xFlag-LRRK1 kinase dead mutant (K1269M; printed K1269W in the dimer experiment), full-length (enzyme)
chain: METLNGAGDTGGKPSTRGGDPAARSRRTEGIRAAYRRGDRGGARDLLEEACDQCASQLEKGQLLSIPAAYGDLEMVRYLLSKRLVELPTEPTDDNPAVVAAYFGHTAVVQELLESLPGPCSPQRLLNWMLALACQRGHLGVVKLLVLTHGADPESYAVRKNEFPVIVRLPLYAAIKSGNEDIAIFLLRHGAYFCSYILLDSPDPSKHLLRKYFIEASPLPSSYPGKTALRVKWSHLRLPWVDLDWLIDISCQITELDLSANCLATLPSVIPWGLINLRKLNLSDNHLGELPGVQSSDEIICSRLLEIDISSNKLSHLPPGFLHLSKLQKLTASKNCLEKLFEEENATNWIGLRKLQELDISDNKLTELPALFLHSFKSLNSLNVSRNNLKVFPDPWACPLKCCKASRNALECLPDKMAVFWKNHLKDVDFSENALKEVPLGLFQLDALMFLRLQGNQLAALPPQEKWTCRQLKTLDLSRNQLGKNEDGLKTKRIAFFTTRGRQRSGTEAASVLEFPAFLSESLEVLCLNDNHLDTVPPSVCLLKSLSELYLGNNPGLRELPPELGQLGNLWQLDTEDLTISNVPAEIQKEGPKAMLSYLRAQLRKAEKCKLMKMIIVGPPRQGKSTLLEILQTGRAPQVVHGEATIRTTKWELQRPAGSRAKVESVEFNVWDIGGPASMATVNQCFFTDKALYVVVWNLALGEEAVANLQFWLLNIEAKAPNAVVLVVGTHLDLIEAKFRVERIATLRAYVLALCRSPSGSRATGFPDITFKHLHEISCKSLEGQEGLRQLIFHVTCSMKDVGSTIGCQRLAGRLIPRSYLSLQEAVLAEQQRRSRDDDVQYLTDRQLEQLVEQTPDNDIKDYEDLQSAISFLIETGTLLHFPDTSHGLRNLYFLDPIWLSECLQRIFNIKGSRSVAKNGVIRAEDLRMLLVGTGFTQQTEEQYFQFLAKFEIALPVANDSYLLPHLLPSKPGLDTHGMRHPTANTIQRVFKMSFVPVGFWQRFIARMLISLAEMDLQLFENKKNTKSRNRKVTIYSFTGNQRNRCSTFRVKRNQTIYWQEGLLVTFDGGYLSVESSDVNWKKKKSGGMKIVCQSEVRDFSAMAFITDHVNSLIDQWFPALTATESDGTPLMEQYVPCPVCETAWAQHTDPSEKSEDVQYFDMEDCVLTAIERDFISCPRHPDLPVPLQELVPELFMTDFPARLFLENSKLEHSEDEGSVLGQGGSGTVIYRARYQGQPVAVWRFHIKKFKNFANVPADTMLRHLRATDAMKNFSEFRQEASMLHALQHPCIVALIGISIHPLCFALELAPLSSLNTVLSENARDSSFIPLGHMLTQKIAYQIASGLAYLHKKNIIFCDLKSDNILVWSLDVKEHINIKLSDYGISRQSFHEGALGVEGTPGYQAPEIRPRIVYDEKVDMFSYGMVLYELLSGQRPALGHHQLQIAKKLSKGIRPVLGQPEEVQFRRLQALMMECWDTKPEKRPLALSVVSQMKDPTFATFMYELCCGKQTAFFSSQGQEYTVVFWDGKEESRNYTVVNTEKGLMEVQRMCCPGMKVSCQLQVQRSLWTATEDQKIYIYTLKGMCPLNTPQQALDTPAVVTCFLAVPVIKKNSYLVLAGLADGLVAVFPVVRGTPKDSCSYLCSHTANRSKFSIADEDARQNPYPVKAMEVVNSGSEVWYSNGPGLLVIDCASLEICRRLEPYMAPSMVTSVVCSSEGRGEEVVWCLDDKANSLVMYHSTTYQLCARYFCGVPSPLRDMFPVRPLDTEPPAASHTANPKVPEGDSIADVSIMYSEELGTQILIHQESLTDYCSMSSYSSSPPRQAARSPSSLPSSPASSSSVPFSTDCEDSDMLHTPGAASDRSEHDLTPMDGETFSQHLQAVKILAVRDLIWVPRRGGDVIVIGLEKDSGAQRGRVIAVLKARELTPHGVLVDAAVVAKDTVVCTFENENTEWCLAVWRGWGAREFDIFYQSYEELGRLEACTRKRR
stoichiometry N [8]: 2

Second part, the molecule after the results:

stoichiometry N [4]: 2
Molecule: 3xFlag-LRRK2 K1906M kinase dead mutant, full-length, Q5S007 1-2527

stoichiometry N [5]: 2
Molecule: 3xFlag-LRRK1 wild-type (leucine-rich repeat kinase 1), full-length (from UniProt Q38SD2 1-2015) (enzyme)

stoichiometry N [7]: 2
Molecule: 3xFlag-LRRK1 K650A GTP deficient binding mutant, full-length (from UniProt Q38SD2 1-2015) (enzyme)
